# Data published in article PMC12412103, “An Amyloidogenic Fragment of the Spike Protein from SARS-CoV‑2 Virus Stimulates the Aggregation and Toxicity of Parkinson’s Disease Protein Alpha-Synuclein” (ACS Chemical Neuroscience, 2025).
# Target: mS194 (Spike 194–203 monomer) (Severe acute respiratory syndrome coronavirus 2, UniProt P0DTC2)
substance,measurement,value
fAβ1–42,effect of fAβ on mS194 aggregation,acceleration of mS194 aggregation
"fAβ25–35 (GSNKGAIIGLM; Amyloid-beta protein 42 fibrillar; UniProt P05067 696-706, looked up, fragment)",effect of fAβ on mS194 aggregation,acceleration of mS194 aggregation
same,increase of ThT fluorescence intensity of mS194 versus mS194 alone,4 fold
